# T1: FH_(19−20) (C-terminal part of factor H, SCR 19-20), recombinant (human, UniProt P08603 1103-1231)
# T1 construct: Complement factor H, human, SCR domains 19-20; also called fragment FH_(19−20); source: recombinant
# T1 sequence: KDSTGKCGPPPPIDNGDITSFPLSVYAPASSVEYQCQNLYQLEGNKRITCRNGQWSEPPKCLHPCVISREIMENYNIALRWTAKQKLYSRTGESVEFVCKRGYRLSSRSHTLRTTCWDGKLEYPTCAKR
# B1: Sbi-III-IV(K173A) (domain or fragment)
# chain: not shown
# notes: As used in SPR, ELISA and SAXS; also called K173A Sbi-III-IV; Sbi-III-IV mutant K173A; source: recombinant, from mutated pQE30:sbi-III-IV plasmid (QuikChange), purified
# B2: factor H-related protein 1 (FHR-1), recombinant (natural protein, human, UniProt Q03591 19-330, looked up)
# chain: EATFCDFPKINHGILYDEEKYKPFSQVPTGEVFYYSCEYNFVSPSKSFWTRITCTEEGWSPTPKCLRLCFFPFVENGHSESSGQTHLEGDTVQIICNTGYRLQNNENNISCVERGWSTPPKCRSTDTSCVNPPTVQNAHILSRQMSKYPSGERVRYECRSPYEMFGDEEVMCLNGNWTEPPQCKDSTGKCGPPPPIDNGDITSFPLSVYAPASSVEYQCQNLYQLEGNKRITCRNGQWSEPPKCLHPCVISREIMENYNIALRWTAKQKLYLRTGESAEFVCKRGYRLSSRSHTLRTTCWDGKLEYPTCAKR
# notes: Complement factor H-related protein 1, human; secreted from CHO cells, so probably the mature protein
# Columns and labels:
# [1] = target: T2, Factor H (FH) (human, UniProt P08603 19-1231); assay: SPR; Biacore S200, CM5 chip, 25°C, HBST (10 mM HEPES, 150 mM NaCl, 0.005% Tween 20, pH 7.4); surfaces: 800 RU opsonized C3b, iC3b made from it, or 600 RU amine-coupled C3d; series of Sbi-III-IV WT or K173A (4,050 to 1.8 nM) flowed alone or co-injected with FH, FHR-1, FHR-2, FHR-5 or FH19-20 at 100, 12.5, 20, 25 or 20 nM; settings: both partners purified
# T2 construct: Complement factor H, human, plasma purified; also called plasma purified FH; source: bought: Complement Technologies (plasma purified)
# [2] = target: B2; assay: as above; settings: both partners purified
# [3] = target: T1, FH_(19−20) (C-terminal part of factor …); assay: as above; settings: both partners purified
# [4] = target: the molecule itself; assay: SAXS; Sbi-III-IV, C3d and FHR-1 combined 1:1:1 at 45 uM, in PBS; EOM ensemble modelling with P2 symmetry
Binder,binding result [1],binding result [2],binding result [3],stoichiometry N [4]
B1,binds,binds,binds,–
B2,–,–,–,2

# — publication PMC6336717 (Frontiers in Immunology, 2018)
